Test results from patent publication US20090105152A1.
Numbered stars: 1 amine (or outer) side, 2 acyl side, 3 side chain; on linkers, the order of the positions; unused ones are H or OH. Square brackets hold non-standard residues; d marks the D form. Hyp(Bzl) = O-benzyl-trans-4-hydroxyproline, O=C([C@@H]1C[C@@H](OCc2ccccc2)CN1[*:1])[*:2]; Asp(NHcPr) = N-omega-cyclopropylasparagine, O=C(C[C@H](N[*:1])C(=O)[*:2])NC1CC1; Asp(NHPen) = N-omega-pentylasparagine, CCCCCNC(=O)C[C@H](N[*:1])C(=O)[*:2]; Pro(4S-NH2) = N[C@@H]1CN[C@H](C(=O)O)C1; Phe(3-F) = N[C@@H](Cc1cccc(F)c1)C(=O)O; Phe(4-F) = N[C@@H](Cc1ccc(F)cc1)C(=O)O; Phe(2-F) = N[C@@H](Cc1ccccc1F)C(=O)O; Arg(Me) = CNC(=N)NCCC[C@H](N)C(=O)O; Dap(CONH2) = NC(=O)NC[C@H](N)C(=O)O; Hyp = O=C(O)[C@@H]1C[C@@H](O)CN1; dNMeF = CN[C@H](Cc1ccccc1)C(=O)O; NMeS = CN[C@@H](CO)C(=O)O; Aib = CC(C)(N)C(=O)O; azaGly = NNC(=O)O

B1: des(1)-Ac-[D-Tyr2,Aib3,Thr5,Phe(4F)6,AzaGly7,Arg(Me)9,Trp10]MS10 (peptide)
peptide: Ac-[dY][Aib]NT[Phe(4-F)][azaGly]L[Arg(Me)]W-NH2
SMILES: CNC(=N)NCCC[C@H](NC(=O)[C@H](CC(C)C)NC(=O)NNC(=O)[C@H](Cc1ccc(F)cc1)NC(=O)[C@@H](NC(=O)[C@H](CC(N)=O)NC(=O)C(C)(C)NC(=O)[C@@H](Cc1ccc(O)cc1)NC(C)=O)[C@@H](C)O)C(=O)N[C@@H](Cc1c[nH]c2ccccc12)C(N)=O
B2: des(1)-Ac-[D-Tyr2,Aib3,Thr5,Phe(2F)6,AzaGly7,Arg(Me)9,Trp10]MS10 (peptide)
peptide: Ac-[dY][Aib]NT[Phe(2-F)][azaGly]L[Arg(Me)]W-NH2
SMILES: CNC(=N)NCCC[C@H](NC(=O)[C@H](CC(C)C)NC(=O)NNC(=O)[C@H](Cc1ccccc1F)NC(=O)[C@@H](NC(=O)[C@H](CC(N)=O)NC(=O)C(C)(C)NC(=O)[C@@H](Cc1ccc(O)cc1)NC(C)=O)[C@@H](C)O)C(=O)N[C@@H](Cc1c[nH]c2ccccc12)C(N)=O
B3: des(1)-Ac-[D-Tyr2,Glu3,Thr5,Phe(4F)6,AzaGly7,Arg(Me)9,Trp10]MS10 (peptide)
peptide: Ac-[dY]ENT[Phe(4-F)][azaGly]L[Arg(Me)]W-NH2
SMILES: CNC(=N)NCCC[C@H](NC(=O)[C@H](CC(C)C)NC(=O)NNC(=O)[C@H](Cc1ccc(F)cc1)NC(=O)[C@@H](NC(=O)[C@H](CC(N)=O)NC(=O)[C@H](CCC(=O)O)NC(=O)[C@@H](Cc1ccc(O)cc1)NC(C)=O)[C@@H](C)O)C(=O)N[C@@H](Cc1c[nH]c2ccccc12)C(N)=O
B4: des(1)-Ac-[D-Tyr2,Aib3,Thr5,Phe(3F)6,AzaGly7,Arg(Me)9,Trp10]MS10 (peptide)
peptide: Ac-[dY][Aib]NT[Phe(3-F)][azaGly]L[Arg(Me)]W-NH2
SMILES: CNC(=N)NCCC[C@H](NC(=O)[C@H](CC(C)C)NC(=O)NNC(=O)[C@H](Cc1cccc(F)c1)NC(=O)[C@@H](NC(=O)[C@H](CC(N)=O)NC(=O)C(C)(C)NC(=O)[C@@H](Cc1ccc(O)cc1)NC(C)=O)[C@@H](C)O)C(=O)N[C@@H](Cc1c[nH]c2ccccc12)C(N)=O
B5: des(1)-Ac-[D-Tyr2,Hyp(Bzl)3,Thr5,AzaGly7,Arg(Me)9,Trp10]MS10 (peptide)
peptide: Ac-[dY][Hyp(Bzl)]NTF[azaGly]L[Arg(Me)]W-NH2
SMILES: CNC(=N)NCCC[C@H](NC(=O)[C@H](CC(C)C)NC(=O)NNC(=O)[C@H](Cc1ccccc1)NC(=O)[C@@H](NC(=O)[C@H](CC(N)=O)NC(=O)[C@@H]1C[C@@H](OCc2ccccc2)CN1C(=O)[C@@H](Cc1ccc(O)cc1)NC(C)=O)[C@@H](C)O)C(=O)N[C@@H](Cc1c[nH]c2ccccc12)C(N)=O
B6: des(1)-Ac-[D-Tyr2,D-Trp3,Asp(NHcPr)4,Thr5,AzaGly7,Arg(Me)9,Trp10]MS10 (peptide)
peptide: Ac-[dY][dW][Asp(NHcPr)]TF[azaGly]L[Arg(Me)]W-NH2
SMILES: CNC(=N)NCCC[C@H](NC(=O)[C@H](CC(C)C)NC(=O)NNC(=O)[C@H](Cc1ccccc1)NC(=O)[C@@H](NC(=O)[C@H](CC(=O)NC1CC1)NC(=O)[C@@H](Cc1c[nH]c2ccccc12)NC(=O)[C@@H](Cc1ccc(O)cc1)NC(C)=O)[C@@H](C)O)C(=O)N[C@@H](Cc1c[nH]c2ccccc12)C(N)=O
B7: des(1)-Ac-[D-Tyr2,Pro(4NH2)3,Thr5,AzaGly7,Arg(Me)9,Trp10]MS10 (peptide)
peptide: Ac-[dY][Pro(4S-NH2)]NTF[azaGly]L[Arg(Me)]W-NH2
SMILES: CNC(=N)NCCC[C@H](NC(=O)[C@H](CC(C)C)NC(=O)NNC(=O)[C@H](Cc1ccccc1)NC(=O)[C@@H](NC(=O)[C@H](CC(N)=O)NC(=O)[C@@H]1C[C@H](N)CN1C(=O)[C@@H](Cc1ccc(O)cc1)NC(C)=O)[C@@H](C)O)C(=O)N[C@@H](Cc1c[nH]c2ccccc12)C(N)=O
B8: des(1)-Ac-[D-Tyr2,Hyp3,Thr5,D-Phe6,AzaGly7,Arg(Me)9,Trp10]MS10 (peptide)
peptide: Ac-[dY][Hyp]NT[dF][azaGly]L[Arg(Me)]W-NH2
B9: des(1)-Ac-[D-Tyr2,D-NMePhe3,Thr5,AzaGly7,Arg(Me)9,Trp10]MS10 (peptide)
peptide: Ac-[dY][dNMeF]NTF[azaGly]L[Arg(Me)]W-NH2
SMILES: CNC(=N)NCCC[C@H](NC(=O)[C@H](CC(C)C)NC(=O)NNC(=O)[C@H](Cc1ccccc1)NC(=O)[C@@H](NC(=O)[C@H](CC(N)=O)NC(=O)[C@@H](Cc1ccccc1)N(C)C(=O)[C@@H](Cc1ccc(O)cc1)NC(C)=O)[C@@H](C)O)C(=O)N[C@@H](Cc1c[nH]c2ccccc12)C(N)=O
B10: des(1)-Ac-[D-Tyr2,Lys3,Thr5,Phe(4F)6,AzaGly7,Arg(Me)9,Trp10]MS10 (peptide)
peptide: Ac-[dY]KNT[Phe(4-F)][azaGly]L[Arg(Me)]W-NH2
SMILES: CNC(=N)NCCC[C@H](NC(=O)[C@H](CC(C)C)NC(=O)NNC(=O)[C@H](Cc1ccc(F)cc1)NC(=O)[C@@H](NC(=O)[C@H](CC(N)=O)NC(=O)[C@H](CCCCN)NC(=O)[C@@H](Cc1ccc(O)cc1)NC(C)=O)[C@@H](C)O)C(=O)N[C@@H](Cc1c[nH]c2ccccc12)C(N)=O
B11: des(1)-Ac-[D-Tyr2,Hyp3,Thr5,Phe(4F)6,AzaGly7,Arg(Me)9,Trp10]MS10 (peptide)
peptide: Ac-[dY][Hyp]NT[Phe(4-F)][azaGly]L[Arg(Me)]W-NH2
SMILES: CNC(=N)NCCC[C@H](NC(=O)[C@H](CC(C)C)NC(=O)NNC(=O)[C@H](Cc1ccc(F)cc1)NC(=O)[C@@H](NC(=O)[C@H](CC(N)=O)NC(=O)[C@@H]1C[C@@H](O)CN1C(=O)[C@@H](Cc1ccc(O)cc1)NC(C)=O)[C@@H](C)O)C(=O)N[C@@H](Cc1c[nH]c2ccccc12)C(N)=O
B12: des(1-2)-Ac-[D-Tyr3,Thr5,AzaGly7,Arg(Me)9,Trp10]MS10 (peptide)
peptide: Ac-[dY]NTF[azaGly]L[Arg(Me)]W-NH2
SMILES: CNC(=N)NCCC[C@H](NC(=O)[C@H](CC(C)C)NC(=O)NNC(=O)[C@H](Cc1ccccc1)NC(=O)[C@@H](NC(=O)[C@H](CC(N)=O)NC(=O)[C@@H](Cc1ccc(O)cc1)NC(C)=O)[C@@H](C)O)C(=O)N[C@@H](Cc1c[nH]c2ccccc12)C(N)=O
B13: des(1)-Ac-[D-Tyr2,Hyp3,NMeSer5,AzaGly7,Arg(Me)9,Trp10]MS10 (peptide)
peptide: Ac-[dY][Hyp]N[NMeS]F[azaGly]L[Arg(Me)]W-NH2
SMILES: CNC(=N)NCCC[C@H](NC(=O)[C@H](CC(C)C)NC(=O)NNC(=O)[C@H](Cc1ccccc1)NC(=O)[C@H](CO)N(C)C(=O)[C@H](CC(N)=O)NC(=O)[C@@H]1C[C@@H](O)CN1C(=O)[C@@H](Cc1ccc(O)cc1)NC(C)=O)C(=O)N[C@@H](Cc1c[nH]c2ccccc12)C(N)=O
B14: des(1)-Ac-[D-Tyr2,Gly3,Thr5,Phe(3F)6,AzaGly7,Arg(Me)9,Trp10]MS10 (peptide)
peptide: Ac-[dY]GNT[Phe(3-F)][azaGly]L[Arg(Me)]W-NH2
SMILES: CNC(=N)NCCC[C@H](NC(=O)[C@H](CC(C)C)NC(=O)NNC(=O)[C@H](Cc1cccc(F)c1)NC(=O)[C@@H](NC(=O)[C@H](CC(N)=O)NC(=O)CNC(=O)[C@@H](Cc1ccc(O)cc1)NC(C)=O)[C@@H](C)O)C(=O)N[C@@H](Cc1c[nH]c2ccccc12)C(N)=O
B15: des(1)-Ac-[D-Tyr2,Hyp3,Thr5,AzaGly7,Trp10]MS10 (peptide)
peptide: Ac-[dY][Hyp]NTF[azaGly]LRW-NH2
SMILES: CC(=O)N[C@H](Cc1ccc(O)cc1)C(=O)N1C[C@H](O)C[C@H]1C(=O)N[C@@H](CC(N)=O)C(=O)N[C@H](C(=O)N[C@@H](Cc1ccccc1)C(=O)NNC(=O)N[C@@H](CC(C)C)C(=O)N[C@@H](CCCNC(=N)N)C(=O)N[C@@H](Cc1c[nH]c2ccccc12)C(N)=O)[C@@H](C)O
B16: des(1)-Ac-[D-Tyr2,Gly3,Thr5,Phe(4F)6,AzaGly7,Arg(Me)9,Trp10]MS10 (peptide)
peptide: Ac-[dY]GNT[Phe(4-F)][azaGly]L[Arg(Me)]W-NH2
SMILES: CNC(=N)NCCC[C@H](NC(=O)[C@H](CC(C)C)NC(=O)NNC(=O)[C@H](Cc1ccc(F)cc1)NC(=O)[C@@H](NC(=O)[C@H](CC(N)=O)NC(=O)CNC(=O)[C@@H](Cc1ccc(O)cc1)NC(C)=O)[C@@H](C)O)C(=O)N[C@@H](Cc1c[nH]c2ccccc12)C(N)=O
B17: des(1)-Ac-[D-Tyr2,D-Trp3,Asp(NHPen)4,Thr5,AzaGly7,Arg(Me)9,Trp10]MS10 (peptide)
peptide: Ac-[dY][dW][Asp(NHPen)]TF[azaGly]L[Arg(Me)]W-NH2
SMILES: CCCCCNC(=O)C[C@H](NC(=O)[C@@H](Cc1c[nH]c2ccccc12)NC(=O)[C@@H](Cc1ccc(O)cc1)NC(C)=O)C(=O)N[C@H](C(=O)N[C@@H](Cc1ccccc1)C(=O)NNC(=O)N[C@@H](CC(C)C)C(=O)N[C@@H](CCCNC(=N)NC)C(=O)N[C@@H](Cc1c[nH]c2ccccc12)C(N)=O)[C@@H](C)O
B18: des(1)-Ac-[D-Tyr2,Hyp3,Alb4,Thr5,AzaGly7,Arg(Me)9,Trp10]MS10 (peptide)
peptide: Ac-[dY][Hyp][Dap(CONH2)]TF[azaGly]L[Arg(Me)]W-NH2
SMILES: CNC(=N)NCCC[C@H](NC(=O)[C@H](CC(C)C)NC(=O)NNC(=O)[C@H](Cc1ccccc1)NC(=O)[C@@H](NC(=O)[C@H](CNC(N)=O)NC(=O)[C@@H]1C[C@@H](O)CN1C(=O)[C@@H](Cc1ccc(O)cc1)NC(C)=O)[C@@H](C)O)C(=O)N[C@@H](Cc1c[nH]c2ccccc12)C(N)=O
B19: des(1-5)-4-[Bis-(2-Pyridylmethyl)aminomethyl]benzoyl-[AzaGly7,Arg(Me)9,Trp10]MS10 (peptide)
peptide: {4‑(bis-(2-pyridylmethyl)aminomethyl)benzoyl}-F[azaGly]L[Arg(Me)]W-NH2
B20: des(1)-Ac-[D-Tyr2,Gly3,Thr5,Phe(2F)6,AzaGly7,Arg(Me)9,Trp10]MS10 (peptide)
peptide: Ac-[dY]GNT[Phe(2-F)][azaGly]L[Arg(Me)]W-NH2
SMILES: CNC(=N)NCCC[C@H](NC(=O)[C@H](CC(C)C)NC(=O)NNC(=O)[C@H](Cc1ccccc1F)NC(=O)[C@@H](NC(=O)[C@H](CC(N)=O)NC(=O)CNC(=O)[C@@H](Cc1ccc(O)cc1)NC(C)=O)[C@@H](C)O)C(=O)N[C@@H](Cc1c[nH]c2ccccc12)C(N)=O

The binders below were run against human OT7T175 (metastin receptor) (human) (UniProt Q969F8) (assay: cell-based or functional assay).
Chain of human OT7T175 (metastin receptor) (human) (Q969F8 whole entry L364H): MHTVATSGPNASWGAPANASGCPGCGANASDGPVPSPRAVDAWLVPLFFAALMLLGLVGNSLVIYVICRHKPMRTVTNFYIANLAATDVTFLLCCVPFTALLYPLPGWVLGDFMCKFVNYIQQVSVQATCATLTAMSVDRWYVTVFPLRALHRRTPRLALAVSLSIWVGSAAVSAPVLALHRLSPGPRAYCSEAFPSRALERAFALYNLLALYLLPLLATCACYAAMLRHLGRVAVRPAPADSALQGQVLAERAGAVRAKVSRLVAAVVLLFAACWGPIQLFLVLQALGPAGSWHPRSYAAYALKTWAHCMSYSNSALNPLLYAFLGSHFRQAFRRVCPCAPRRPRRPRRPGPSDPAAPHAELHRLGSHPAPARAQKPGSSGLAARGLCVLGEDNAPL

intracellular Ca ion level-increasing activity [specific activity to Metastin (1-54)] (relative to Metastin (1-54))	Binder
2.9	B1
3.4	B2
2.7	B3
3.3	B4
1	B5
1.6	B6
2.1	B7
2.3	B8
1.8	B9
3.4	B10
2.3	B11
1.8	B12
1	B13
3.2	B14
1.4	B15
2.3	B16
0.7	B17
0.8	B18
11.1	B19
8.8	B20
